This note sets out measurements from PMC11073785, “YeeD is an essential partner for YeeE-mediated thiosulfate uptake in bacteria and regulates thiosulfate ion decomposition” (PLOS Biology, 2024).

First the molecules themselves.
B1: Spirochaeta thermophila YeeE [Spirochaeta thermophila] / Spirochaeta thermophila YeeD (WT), His6-tagged [Spirochaeta thermophila] (parent complex)
chain 1: MIWTGLLVGFLFGIVLQRGRICFNSAFRDVLLFKDNYLFKLAVFTLALEMILFVLLSQVGLMQMNPKPLNLVGNIIGGFVFGLGMVLAGGCASGVTYRVGEGLTTAWFAALFYGLGAYATKSGAFSWWLSWVGQFKSPLSVEESAYYVKGAGPTISSVLGLNPWIPALVIAALFILWAFGTKTTSRETKFNWKIASVCLALVAGLGFITSTLSGRKYGLGITGGWINLFQGFLTNSPLNWEGLEIVGIILGAGVAAAVAGEFKLRMPKNPVTYLQVGIGGLLMGIGAVTAGGCNIGHFLTGVPQLALSSWLASIFFILGNWTMAWILF
chain 2: MANYQVSKEIDVRGEVCPIPDVEAKRAVQSANDGEIILVRIDYPLSKERIPETVKKLGSEVLEIEEAAPGEWNIYIKVKK

The variants in this assay derive from B1. Nature of the assay: BLI; Octet buffer (20 mM Tris-HCl (pH 8.0), 300 mM NaCl, 0.1% (w/v) DDM, 1 mM β-ME); response at 120 s; parent: 1.8; read off a plot. A general note: Biolayer interferometry detects binding as a change in optical thickness at a sensor tip.
chain 2 C17A: the response is ~0.14 nm.

As to chain 2 D42A, the response was ~0.04 nm.
